Reference: patent publication US7312045B2, “Aggrecanase-1 and -2 peptide substrates and methods” (Ortho-McNeil Pharmaceutical, Inc., priority 2002, dated 2007)
Primed or numbered codes have the meaning given here. No end group written: not given here. *: point of attachment. Dabcyl′ = CN(C)c1ccc(/N=N/c2ccc(C(=O)*)cc2)cc1

Assays:
Assay type in all cases: biochemical
Aggrecanase-1 = molecular target: T1, Aggrecanase-1 (Homo sapiens, UniProt O75173); assay: Drug screening assay, aggrecanase-1 FasL1 FRET peptide cleavage; settings: inhibitor 7.5 micromolar, FasL1 225 μM, 200 minutes at room temperature
T1 construct: made in house; host or cells: Sf9 cells (baculovirus, pFastBac1)
T1 sequence (O75173 213-437): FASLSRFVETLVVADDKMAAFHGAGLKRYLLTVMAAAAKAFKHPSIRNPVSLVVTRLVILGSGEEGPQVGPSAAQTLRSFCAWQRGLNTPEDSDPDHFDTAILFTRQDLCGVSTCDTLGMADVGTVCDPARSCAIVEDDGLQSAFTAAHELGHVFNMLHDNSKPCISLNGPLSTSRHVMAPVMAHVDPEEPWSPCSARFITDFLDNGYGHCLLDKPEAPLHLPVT
Experimental: Aggrecanase-1 ([…] of protein, 85 to 167 picomoles) was diluted in assay buffer (50 mM HEPES pH 7.5, 10 mM CaCl2, 0.1M NaCl, 0.05% Brij-35). Samples were prepared containing putative inhibitors A (Chen et al. Biorg. Med. Chem. Lett. 6(13):1601-1606, 1996) or B (Bailey, et al. Biorg. Med. Chem. Lett. 9(21):3165-3170, 1999), shown below, at a final concentration of 7.5 micromolar. The final % DMSO in the assay was 3% and it was determined experimentally that this concentration was not detrimental to the activity of the enzyme. The reaction was initiated by the addition of FasL1 peptide substrate to a final concentration of 225 μM and readings were taken at one-minute intervals, for a total of 200 minutes at room temperature.
The assay was always performed at enzyme and substrate concentrations where the activity was linearly related to enzyme concentration and where the increase in fluorescence (reaction rate) was linear for at least the time of the assay. From FIG. 4A, it can be seen that for kinetic analysis, the signal-to-noise ratio is effectively infinite, as no change in the background (blank, no enzyme) is observed over the time of the assay. For endpoint measurements, the enzyme and substrate concentrations could be adjusted to achieve the desired signal-to-noise ratio. […]

aggrecanase-2 [1] = molecular target: T2, aggrecanase-2 (Homo sapiens, UniProt Q9UNA0); assay: IC50 analysis for inhibition of aggrecanase-2, FasL1 FRET peptide cleavage; settings: FasL1 225 μM, 60 minutes at room temperature, inhibitor 0.1 to 12.5 μM
T2 construct: made in house; host or cells: Sf9 cells (baculovirus, pFastBac1)
T2 sequence (Q9UNA0 262-482): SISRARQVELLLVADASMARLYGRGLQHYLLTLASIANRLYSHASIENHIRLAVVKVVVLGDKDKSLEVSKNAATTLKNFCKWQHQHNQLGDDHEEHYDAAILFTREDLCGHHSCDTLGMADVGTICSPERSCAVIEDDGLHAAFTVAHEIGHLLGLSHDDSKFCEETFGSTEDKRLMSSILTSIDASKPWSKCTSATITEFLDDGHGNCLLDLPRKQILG
Experimental: Aggrecanase-2 (0.5 to 1 μg of protein, 17 to 33 picomoles) was diluted in assay buffer (50 mM HEPES pH 7.5, 10 mM CaCl2, 0.1M NaCl, 0.05% Brij-35). Samples were prepared containing Inhibitor A, B or C (shown above) at final concentrations ranging from 0.1 to 12.5 μM (final DMSO concentration of 1.5%). Duplicate assays were run for each concentration of Inhibitor A, B and C (purchased from Peptides International, TAPI-0, Cat. No. INH 3850-P1) for 60 minutes at room temperature. The reaction was initiated by the addition of FasL1 peptide substrate to a final concentration of 225 μM. The reaction rates over 60 minutes at room temperature, in the absence (control) and presence of various concentrations of the inhibitor, were determined by linear regression of the data points. The reaction rate data in FIG. 4B were fitted by non-linear regression using the program Grafit (Erithacus Software).

truncated aggrecanase-2 = molecular target: T3, truncated aggrecanase-2 (Homo sapiens, UniProt Q9UNA0); assay: FRET peptide substrate screening, truncated aggrecanase-2; settings: peptide 50 uM, 60 minutes at room temperature
T3 construct: made in house; host or cells: Sf9 cells (baculovirus, pFastBac1)
T3 sequence (Q9UNA0 262-482): T2 sequence (Q9UNA0 262-482)
Text: (§1) Fifty-six different peptides were synthesized to test for protease activity (see Table 3 below). The peptides included a collection of substrates for other proteases, as well as a number of sequences corresponding to membrane proximal cleavage sites of various proteins postulated to be released by metalloproteases (including those published by (Roghani et al., J. Biol. Chem. 274:3531-340, 1999) for ADAM9/MDC9). In order to use the principle of fluorescence resonance energy transfer, or FRET, the peptides were labeled at the C-terminus with Dabcyl and at the N-terminus with Aedans (or vice versa). Thus cleavage of the peptides was monitored by the increase in Aedans fluorescence at 460 nm (excitation 360 nm) as a result of the decrease in proximity of the Dabcyl quencher. The assay was performed by diluting the truncated aggrecanase-1 (approximately 2.5 to 5 μg of protein, 85 to 167 picomoles, SEQ ID NO:8) or truncated aggrecanase-2 (approximately 0.5 to 1 μg of protein, 17 to 33 picomoles, SEQ ID NO:9), in assay buffer (50 mM HEPES pH 7.5, 10 mM CaCl2, 0.1M NaCl and 0.05% (w/v) Brij-35 detergent (Sigma).
(§2) The reaction was initiated by the addition of peptide substrate to a final concentration of 100 uM for truncated aggrecanase-1 and 50 uM for truncated aggrecanase-2. The assays were typically run for 60 minutes at room temperature and the slope of the kinetic increase in fluorescence was determined to calculate the rate of the reaction.
FIG. 2 illustrates the relative activities for the 56 different peptides, A1 to H7 (only every alternate peptide is numbered in FIG. 2) expressed in arbitrary, but relative units. […] Peptide D7 (16 amino acids) corresponds to the sequence within aggrecan containing the Glu373-Ala374 aggrecanase cleavage site.

aggrecanase-2 [2] = molecular target: T2, aggrecanase-2; assay: Kinetic analysis of aggrecanase-2 peptide cleavage (Km, Vm); settings: aggrecanase-2, 60 minutes at room temperature, non-linear fitting; for Vm: rfu = relative fluorescence units
Experimental: To confirm the screening assay, aggrecanase-2 was further analyzed for its rate of catalysis using 2 different peptides. The assay was performed by diluting the aggrecanase-2 in assay buffer (50 mM HEPES pH 7.5, 10 mM CaCl2, 0.1M NaCl and 0.05% Brij-35). […] The assay was run for 60 minutes at room temperature. FIG. 3 illustrates the proteolytic activity (in relative fluorescence units per minute) as a function of peptide concentration for peptides FasL1 and 29CD23. The curves were fitted to the data with the program Grafit (Erithacus Software Lmited). The Vmax and Km for each substrate were calculated by non-linear fitting of the data. The cleavage site for aggrecanase-2 within each peptide was determined by LC-MS analysis to be between a glutamic acid and leucine residues in each case, as indicated in Table 2 by a carot within each peptide sequence. […] However, these are clearly not the only requirements for efficient cleavage, as a number of the 56 peptides tested have similar residues and were not cleaved by the aggrecanases.

truncated aggrecanase-1 = molecular target: T4, truncated aggrecanase-1 (Homo sapiens, UniProt O75173); assay: FRET peptide substrate screening, truncated aggrecanase-1; settings: peptide 100 uM, 60 minutes at room temperature
T4 construct: made in house; host or cells: Sf9 cells (baculovirus, pFastBac1)
T4 sequence (O75173 213-437): T1 sequence (O75173 213-437)
Text: as §1, with “The assay was performed by diluting the truncated aggrecanase-1 (approximately 2.5 to 5 μg of protein, 85 to 167 picomoles, SEQ ID NO:8) or truncated aggrecanase-2 (approximately 0.5 to 1 μg of protein, 17 to 33 picomoles, SEQ ID NO:9), in assay buffer (50 mM HEPES pH 7.5, 10 mM CaCl2, 0.1M NaCl and 0.05% (w/v) Brij-35 detergent (Sigma).” left out
as §2, with “reaction. […]” for “reaction.”

MMP7 = molecular target: T5, MMP7 (Homo sapiens, UniProt P09237); assay: Similar peptide substrate screening assay with MMP7; settings: similar screening assays
T5 construct: purchased Chemicon CC1059
T5 sequence (P09237 95-267): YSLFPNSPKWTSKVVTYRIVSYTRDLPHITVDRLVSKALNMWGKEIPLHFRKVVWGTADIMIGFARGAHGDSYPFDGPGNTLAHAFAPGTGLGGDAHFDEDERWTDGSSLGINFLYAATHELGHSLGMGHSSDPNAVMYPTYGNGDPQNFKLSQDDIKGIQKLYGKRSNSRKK

MMP13 = molecular target: T6, MMP13 (Homo sapiens, UniProt P45452); assay: Similar peptide substrate screening assay with MMP13; settings: similar screening assays
T6 construct: purchased Chemicon CC068

Row | inhibition of aggrecanase-1 enzyme activity (FIG. 4A) (Aggrecanase-1) | IC50 (aggrecanase-2 [1]) | relative activity of truncated aggrecanase-2 for the peptide (FIG. 2) (truncated aggrecanase-2) | Km (aggrecanase-2 [2]) | Vm (aggrecanase-2 [2]) | Compound | relative activity of truncated aggrecanase-1 for the peptide (FIG. 2) (truncated aggrecanase-1) | other results
1 | completely inhibited | 0.118 ± 0.005 µM | – | – | – | CC(C)C[C@@H](CC(=O)NO)C(=O)N[C@@H](CC(C)C)c1ncc(-c2ccccc2)[nH]1 [Inhibitor A] | – | –
2 | – | 0.102 ± 0.023 µM | – | – | – | CC(C)C[C@@H](CC(=O)NO)C(=O)N[C@@H](Cc1ccc2ccccc2c1)C(=O)N[C@@H](C)C(N)=O [Inhibitor C, TAPI-0] | – | –
3 | – | – | high activity | 40 µM | 0.6 rfu/min | (Aedans)EADLSSFKSQEL(Dabcyl)K-amide (EADLSSFKSQELK(Dabcyl′)-NH2; not fully specified (residue 1, N-terminus); printed as (Aedans)EADLSSFKSQEL(Dabcyl)K-amide; also: Aedans label on N-terminal Glu (N-terminus or side chain not given here)) [Peptide 29CD23] | – | –
4 | – | – | highest activity | 80 µM | 2.8 rfu/min | (Aedans)EKELAELRESTS(Dabcyl)K-amide (EKELAELRESTSK(Dabcyl′)-NH2; not fully specified (residue 1, N-terminus); printed as (Aedans)EKELAELRESTS(Dabcyl)K-amide; also: Aedans label on N-terminal Glu (N-terminus or side chain not given here)) [FasL1] | highest activity | suitability as substrate for MMP7 (MMP7): suitable substrate; suitability as substrate for MMP13 (MMP13): suitable substrate
5 | completely inhibited | 0.038 ± 0.008 µM | – | – | – | CC(C)(C)C(NC(=O)C(Cc1ccc2ccccc2c1)[C@H](O)C(=O)NO)C(N)=O (stereo partly shown) [Inhibitor B] | – | –

Row | Compound | inhibition of aggrecanase-1 enzyme activity (FIG. 4A) (Aggrecanase-1) | IC50 (aggrecanase-2 [1]) | relative activity of truncated aggrecanase-2 for the peptide (FIG. 2) (truncated aggrecanase-2) | Km (aggrecanase-2 [2]) | Vm (aggrecanase-2 [2]) | relative activity of truncated aggrecanase-1 for the peptide (FIG. 2) (truncated aggrecanase-1) | other results
6 | (Aedans)ERNITEGEARGSVIL(Dabcyl)K-amide (ERNITEGEARGSVILK(Dabcyl′)-NH2; not fully specified (residue 1, N-terminus); printed as (Aedans)ERNITEGEARGSVIL(Dabcyl)K-amide; also: Aedans label on N-terminal Glu (N-terminus or side chain not given here)) [Peptide D7] | – | – | Neither truncated aggrecanase-1 nor truncated aggrecanase-2 showed any activity | – | – | Neither truncated aggrecanase-1 nor truncated aggrecanase-2 showed any activity | –
